Common to all, as to test: cell-based or functional assay
The target of one test is hGLP-1R (Homo sapiens, UniProt P43220).
The target in test [1] is T1, human GIP receptor (human) (UniProt P48546).
T1 sequence (looked up): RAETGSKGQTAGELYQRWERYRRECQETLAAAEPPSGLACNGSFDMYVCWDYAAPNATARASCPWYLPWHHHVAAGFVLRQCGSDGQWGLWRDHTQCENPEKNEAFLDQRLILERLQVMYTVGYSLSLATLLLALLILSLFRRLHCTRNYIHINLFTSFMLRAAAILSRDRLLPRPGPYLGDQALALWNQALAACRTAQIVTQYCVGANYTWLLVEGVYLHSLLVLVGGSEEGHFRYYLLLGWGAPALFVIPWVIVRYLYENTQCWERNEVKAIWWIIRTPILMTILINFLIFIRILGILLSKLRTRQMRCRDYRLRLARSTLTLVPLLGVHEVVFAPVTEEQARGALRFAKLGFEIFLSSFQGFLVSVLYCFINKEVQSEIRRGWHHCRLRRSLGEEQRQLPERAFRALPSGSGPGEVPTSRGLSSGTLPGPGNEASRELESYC

The target of test [2] is human glucagon receptor (human) (UniProt P47871).

Here are results for eleven molecules from patent US20240270821A1, “GIP/GLP1/GCG TRI-RECEPTOR AGONISTS AND USES THEREOF” (priority 2023, published 2024).

Chain of hGLP-1R (P43220 24-463): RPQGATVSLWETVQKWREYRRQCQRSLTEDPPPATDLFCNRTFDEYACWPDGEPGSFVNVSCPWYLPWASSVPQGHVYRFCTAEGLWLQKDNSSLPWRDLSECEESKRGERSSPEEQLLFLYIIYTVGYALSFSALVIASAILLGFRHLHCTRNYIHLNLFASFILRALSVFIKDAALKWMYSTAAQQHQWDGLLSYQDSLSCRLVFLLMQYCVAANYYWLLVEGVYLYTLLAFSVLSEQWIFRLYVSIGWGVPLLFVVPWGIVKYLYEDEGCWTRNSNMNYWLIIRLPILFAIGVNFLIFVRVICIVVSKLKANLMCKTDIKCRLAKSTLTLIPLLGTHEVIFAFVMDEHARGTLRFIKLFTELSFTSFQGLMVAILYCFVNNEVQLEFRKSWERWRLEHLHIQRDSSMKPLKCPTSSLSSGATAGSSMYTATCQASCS
Chain of human glucagon receptor (human) (P47871 26-477): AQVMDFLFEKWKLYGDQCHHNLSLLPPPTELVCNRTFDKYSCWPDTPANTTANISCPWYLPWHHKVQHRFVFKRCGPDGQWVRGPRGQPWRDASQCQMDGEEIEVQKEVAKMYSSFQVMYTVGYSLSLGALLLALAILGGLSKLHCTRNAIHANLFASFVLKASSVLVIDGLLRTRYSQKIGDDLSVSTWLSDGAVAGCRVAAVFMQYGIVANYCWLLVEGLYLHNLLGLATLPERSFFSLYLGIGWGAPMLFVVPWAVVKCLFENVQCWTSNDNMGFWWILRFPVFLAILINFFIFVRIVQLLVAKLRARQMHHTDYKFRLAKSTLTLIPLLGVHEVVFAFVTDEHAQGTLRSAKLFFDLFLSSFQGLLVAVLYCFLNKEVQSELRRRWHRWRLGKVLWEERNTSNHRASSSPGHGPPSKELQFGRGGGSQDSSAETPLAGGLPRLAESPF

B1: Example 1129 (peptide)
chain: YXQGTFTSDXSQXLDXKAQXQFIQXLIEXGPSSGEPPPSGGGE
modifications: non-natural residues; lysine acylated with C18 diacid; C-terminal amide; synthetic construct; SITE 2: note = 2-Aminoisobutyric Acid; SITE 10: note = 3-(4-Pyridyl)-L-alanine; SITE 13: note = alpha-methyl-leucine; SITE 16: note = L-ornithine; SITE 17: note = Lysine is chemically modified through conjugation of the epsilon-amino group of the Lysine side chain with D-Glutami
As to B1, the Relative cAMP EC50 with hGLP-1R came out at 0.501 nM; in test [1], 0.048 nM; in test [2], 6.11 nM. Moreover, the cAMP Rel EC50 (1% HSA) worked out at 56.6 nM with hGLP-1R, 4.16 nM in test [1] and 796 nM in test [2].

B2: Example 1092 (peptide)
chain: YXQGTFTSDXSQXLDXKAQXAFIEYLIAXGPSSGEPPPSGSEE
modifications: non-natural residues, acylated Lys ((γGlu)2-C18 diacid), C-terminal amide; synthetic construct; SITE 2: note = 2-Aminoisobutyric Acid; SITE 10: note = 3-(4-Pyridyl)-L-alanine; SITE 13: note = alpha-methyl-leucine; SITE 16: note = L-ornithine; SITE 17: note = Lysine is chemically modified through conjugation of the epsilon-amino group of the Lysine side chain with (gamma-Gl)
In the case of B2, the Relative cAMP EC50 in the test with hGLP-1R was 1.33 nM; in test [1], 0.0648 nM; in test [2], 3.45 nM. For the same molecule, the values for the cAMP Rel EC50 (1% HSA) (with hGLP-1R; in test [1]; in test [2]) were 230 nM, 7.83 nM and 506 nM, respectively.

B3: Example 1125 (peptide)
chain: YXQGTFTSDXSQXLDKKAQXAFIEXLIEXGPSSGEPPPSGSEE
modifications: Aib, 4Pal, Me4Pal, αMeL; lipidated Lys; C-terminal amide; synthetic construct; SITE 2: note = 2-Aminoisobutyric Acid; SITE 10: note = 3-(4-Pyridyl)-L-alanine; SITE 13: note = alpha-methyl-leucine; SITE 17: note = Lysine is chemically modified through conjugation of the epsilon-amino group of the Lysine side chain with (gamma-Glu)2-CO-(CH2)16-CO2H; SITE 20:
On to B3, for which the Relative cAMP EC50 came out at 8.26 nM with hGLP-1R, 0.173 nM in test [1] and 5.83 nM in test [2]. Further, the values for the cAMP Rel EC50 (1% HSA) (with hGLP-1R; in test [1]; in test [2]) were 243 nM, 3.95 nM and 264 nM, respectively.

B4: Example 1105 (peptide)
chain: YXQGTFTSDXSQXLDXKAQXAFIEXLIAXGPSSGEPPPSGSEE
modifications: not fully specified; non-natural residues; Lys acylated γGlu-C18 diacid; C-terminal amide; synthetic construct; SITE 2: note = 2-Aminoisobutyric Acid; SITE 10: note = 3-(4-Pyridyl)-L-alanine; SITE 13: note = alpha-methyl-leucine; SITE 16: note = L-ornithine; SITE 17: note = Lysine is chemically modified through conjugation of the epsilon-amino group of the Lysine side chain with D-Glutami
With B4, the Relative cAMP EC50 with hGLP-1R was found to be 0.875 nM; in test [1], 0.0427 nM; in test [2] it was 10.7 nM. For the same molecule, the cAMP Rel EC50 (1% HSA) with hGLP-1R came out at 92.5 nM; in test [1], 5.59 nM; in test [2], 1260 nM.

B5: Example 1100 (peptide)
chain: YXQGTFTSDXSQXLDXKAQXQFIEXLIAXGPSSGEPPPSGSEE
modifications: non-natural residues; Lys acylated AEEA-γGlu-C18 diacid; C-terminal amide; synthetic construct; SITE 2: note = 2-Aminoisobutyric Acid; SITE 10: note = 3-(4-Pyridyl)-L-alanine; SITE 13: note = alpha-methyl-leucine; SITE 16: note = L-ornithine; SITE 17: note = Lysine is chemically modified through conjugation of the epsilon-amino group of the Lysine side chain with (2-[2-(2-
In the case of B5, the Relative cAMP EC50 with hGLP-1R worked out at 0.514 nM; in test [1] it was 0.0694 nM; in test [2] it was 5.28 nM. For the same molecule, the results for the cAMP Rel EC50 (1% HSA) (in the test with hGLP-1R; in test [1]; in test [2]) were 77.2 nM, 9.04 nM and 577 nM, respectively.

B6: Example 1094 (peptide)
chain: YXQGTFTSDXSQXLDXKAQXAFIEXLIAXGPSSGEPPPSGSEE
modifications: non-natural residues (Aib, 4Pal, Orn, Me4Pal, αMeY); lipidated K; amide; synthetic construct; SITE 2: note = 2-Aminoisobutyric Acid; SITE 10: note = 3-(4-Pyridyl)-L-alanine; SITE 13: note = alpha-methyl-leucine; SITE 16: note = L-ornithine; SITE 17: note = Lysine is chemically modified through conjugation of the epsilon-amino group of the Lysine side chain with (gamma-Gl)
Take B6: the Relative cAMP EC50 with hGLP-1R came out at 0.623 nM; in test [1], 0.0515 nM; in test [2], 5.84 nM. Moreover, the cAMP Rel EC50 (1% HSA) is 64.4 nM with hGLP-1R, 5.86 nM in test [1] and 831 nM in test [2].

B7: Example 1093 (peptide)
chain: YXQGTFTSDXSQXLDXKAQXAFIEXLIEXGPSSGEPPPSGSEE
modifications: non-natural residues, C18 diacid-(γGlu)2 acyl on K, C-terminal amide; synthetic construct; SITE 2: note = 2-Aminoisobutyric Acid; SITE 10: note = 3-(4-Pyridyl)-L-alanine; SITE 13: note = alpha-methyl-leucine; SITE 16: note = L-ornithine; SITE 17: note = Lysine is chemically modified through conjugation of the epsilon-amino group of the Lysine side chain with (gamma-Gl)
Take B7: the Relative cAMP EC50 with hGLP-1R is 0.954 nM; in test [1], 0.152 nM; in test [2] it was 7.72 nM. The figures for the cAMP Rel EC50 (1% HSA) (with hGLP-1R; in test [1]; in test [2]) were 141 nM, 26.8 nM and 958 nM, respectively.

B8: Example 1097 (peptide)
chain: YXQGTFTSDXSQXLDXKAQXAFIEXLIEXGPSSGEPPPSGSEE
modifications: non-natural residues; acylated Lys; C-terminal amide; synthetic construct; SITE 2: note = 2-Aminoisobutyric Acid; SITE 10: note = 3-(4-Pyridyl)-L-alanine; SITE 13: note = alpha-methyl-leucine; SITE 16: note = L-ornithine; SITE 17: note = Lysine is chemically modified through conjugation of the epsilon-amino group of the Lysine side chain with (2-[2-(2-
Regarding B8, the figures for the Relative cAMP EC50 (in the test with hGLP-1R; in test [1]; in test [2]) were 1.59 nM, 0.136 nM and 6.16 nM, respectively. Moreover, the cAMP Rel EC50 (1% HSA) was determined as 141 nM with hGLP-1R, 27.3 nM in test [1] and 752 nM in test [2].

B9: Example 1103 (peptide)
chain: YXQGTFTSDXSQXLDXKAQXAFIEXLIEXGPSSGEPPPSGSEE
modifications: not fully specified; Aib, 4Pal, Orn, Me4Pal, αMeY; lipidated Lys; C-terminal amide; synthetic construct; SITE 2: note = 2-Aminoisobutyric Acid; SITE 10: note = 3-(4-Pyridyl)-L-alanine; SITE 13: note = alpha-methyl-leucine; SITE 16: note = L-ornithine; SITE 17: note = Lysine is chemically modified through conjugation of the epsilon-amino group of the Lysine side chain with D-Glutami
On to B9, for which the Relative cAMP EC50 with hGLP-1R was found to be 1.06 nM; in test [1], 0.0723 nM; in test [2], 11.1 nM. Also, the cAMP Rel EC50 (1% HSA) with hGLP-1R worked out at 183 nM; in test [1], 19.5 nM; in test [2], 1350 nM.

B10: Example 1102 (peptide)
chain: YXQGTFTSDXSQXLDXKAQXAFIEYLIQXGPSSGEPPPSGSEE
modifications: not fully specified; non-natural residues, γGlu-C18 diacid acyl on K, C-terminal amide; synthetic construct; SITE 2: note = 2-Aminoisobutyric Acid; SITE 10: note = 3-(4-Pyridyl)-L-alanine; SITE 13: note = alpha-methyl-leucine; SITE 16: note = L-ornithine; SITE 17: note = Lysine is chemically modified through conjugation of the epsilon-amino group of the Lysine side chain with D-Glutami
On to B10, for which the figures for the Relative cAMP EC50 (with hGLP-1R; in test [1]; in test [2]) were 2.18 nM, 0.0418 nM and 4.37 nM, respectively. For the same molecule, the figures for the cAMP Rel EC50 (1% HSA) (with hGLP-1R; in test [1]; in test [2]) were 295 nM, 5.12 nM and 516 nM, respectively.

B11: Example 1106 (peptide)
chain: YXQGTFTSDXSQXLDXKAQXQFIEXLIAXGPSSGEPPPSGSEE
modifications: not fully specified; Aib, 4Pal, Orn, Me4Pal, αMeY; lipidated Lys; C-terminal amide; synthetic construct; SITE 2: note = 2-Aminoisobutyric Acid; SITE 10: note = 3-(4-Pyridyl)-L-alanine; SITE 13: note = alpha-methyl-leucine; SITE 16: note = L-ornithine; SITE 17: note = Lysine is chemically modified through conjugation of the epsilon-amino group of the Lysine side chain with D-Glutami
Take B11: the Relative cAMP EC50 came out at 0.87 nM with hGLP-1R, 0.0312 nM in test [1] and 7.71 nM in test [2]. For the same molecule, the cAMP Rel EC50 (1% HSA) in the test with hGLP-1R was 119 nM; in test [1], 4.23 nM; in test [2], 1030 nM.
